Experimental findings from publication PMC9701186 (Nature Communications, 2022) are described below.

Assay [1] concerns the target Aigai virus strain Pentalofos GP38 (Aigai virus, strain Pentalofos, UniProt A0A2P1JMM7, strain). Briefly: BLI; […]; antibody (1 µg/mL) […] (AHC) sensors; […]; 300 s association, 600 s dissociation; global 1:1 fit. Particulars: both partners purified. For orientation: In BLI a coated tip is dipped into the sample, and binding shifts an interference pattern.
For assay [2] the target is unchanged. Briefly: BLI; […]; mAb (1 µg/mL) […] (AHC) sensors; […]; 1× Octet kinetics buffer; global 1:1 fit. Particulars: both partners purified.

B1: human chimeric 13G8 mAb (c13G8) (antibody, V domains shown)
VH: DVQLQQSGPGLVAPSQSLSITCTVSGFSLTNYGIHWVRQPPGKGLEWLGVIWAGGYTKYNSALMSRLSMSKDNSKSQVFLKMNSLQTDDTAMYYCARDEVRRDYYAMDHWGQGTTVTVSS
VL: DIQMTQSPAILSASPGEKVTMTCWASSGVSYMHWYQQKPGSSPKPWIFATSNLASGVPARFSGSGSGTSYSLTISRVEAEDAATYYCQQWSFNPLTFGAGTKLEIK
notes: copies: 2 + 2
Turning to B1, in assay [1], the binding result is listed as “no binding (tested: 100nM)”.

B2: human chimeric 13G8 mAb (c13G8) (antibody, V domains shown)
VH: DVQLQQSGPGLVAPSQSLSITCTVSGFSLTNYGIHWVRQPPGKGLEWLGVIWAGGYTKYNSALMSRLSMSKDNSKSQVFLKMNSLQTDDTAMYYCARDEVRRDYYAMDHWGQGTTVTVSS
VL: DIQMTQSPAILSASPGEKVTMTCWASSGVSYMHWYQQKPGSSPKPWIFATSNLASGVPARFSGSGSGTSYSLTISRVEAEDAATYYCQQWSFNPLTFGAGTKLEIK
notes: source: Expi293 cells, purified (mAb Select Sure column)
For B2, the binding result in assay [2] is “no binding (tested: up to 20.0 nM GP38)”.

B3: CC5-17 mAb (antibody, V domains shown)
VH: EVQLVQSGAEVKKPGESLRISCKGSGYSFTSYWIGWVRQMPGKGLEWMGIIYPGDSDTRYSPSFQGQVTISADKSISTAYLQWTSLKASDTAMYYCARQLGGSSFGNYYDSGSYYTAAYWGQGTLVTVSS
VL: DIQMTQSPSSLSASVGDRVTITCRASQSINNYLNWYQQKPGKAPKLLIYAASTLQSGVPSRFSGSGSGTDFTLTISSLQPEDFASYYCQQSYRGTFGQGTKVEFK
notes: copies: 2 + 2
Regarding B3, in assay [1], the binding result is listed as “no binding (tested: 100nM)”.

B4: CC5-17 mAb (antibody, V domains shown)
VH: EVQLVQSGAEVKKPGESLRISCKGSGYSFTSYWIGWVRQMPGKGLEWMGIIYPGDSDTRYSPSFQGQVTISADKSISTAYLQWTSLKASDTAMYYCARQLGGSSFGNYYDSGSYYTAAYWGQGTLVTVSS
VL: DIQMTQSPSSLSASVGDRVTITCRASQSINNYLNWYQQKPGKAPKLLIYAASTLQSGVPSRFSGSGSGTDFTLTISSLQPEDFASYYCQQSYRGTFGQGTKVEFK
In the case of B4, the binding result in assay [2] was “no binding (tested: up to 20.0 nM GP38)”.
